Biological target: Sp1 (Homo sapiens, UniProt P08047 P08047:2-785)
Test: EMSA; poly dI/dC, Mg, Zn, room temperature
Conditions: label: 32P
Experimental: 50,000 CPM of the cellular injury response element, 1 μg poly dI/dC, 10 μg nuclear extract or 2 footprinting units of human Sp1 protein (Promega, Madison, Wis.) were suspended in 12.5 mM HEPES, pH 7.8, 50 mM KCl, 6.25 mM MgCl_2, 5 μM ZnSO_4, 10% glycerol, and 0.05% Nonidet P-40 and incubated for 30 minutes at room temperature. The bands were separated on a 4% polyacrylamide/0.5 X TBE (45 mM Tris-borate, […]) gel, dried and were visualized using the Molecular Imager System (Bio-Rad, Hercules, Calif.). Supershift assays were performed as above with the addition of […] anti-Sp1 antibody (PEP2, Santa Cruz Biotechnology, Inc.) or non-specific rabbit antibody to the reaction mixture after the 30 minute incubation and incubating for an additional 30 minutes.
Nuclear extracts were incubated with ^32P-labeled cellular injury response element and separated on a 0.5X TBE/4% polyacrylamide gel. […] However, no shift was observed when nuclear extracts were incubated with the Sp 1-mutant cellular injury response element (labeled A in FIGS. 7 and 8; a non-specifically shifted band is labeled A in both FIGS. 7 and 8). Thus, the binding of the protein responsible for the gel shift of the cellular injury response element is dependent upon the presence of functional Sp1 site within the cellular injury response element.

Sequence of Sp1 (P08047 2-785, one chain of several): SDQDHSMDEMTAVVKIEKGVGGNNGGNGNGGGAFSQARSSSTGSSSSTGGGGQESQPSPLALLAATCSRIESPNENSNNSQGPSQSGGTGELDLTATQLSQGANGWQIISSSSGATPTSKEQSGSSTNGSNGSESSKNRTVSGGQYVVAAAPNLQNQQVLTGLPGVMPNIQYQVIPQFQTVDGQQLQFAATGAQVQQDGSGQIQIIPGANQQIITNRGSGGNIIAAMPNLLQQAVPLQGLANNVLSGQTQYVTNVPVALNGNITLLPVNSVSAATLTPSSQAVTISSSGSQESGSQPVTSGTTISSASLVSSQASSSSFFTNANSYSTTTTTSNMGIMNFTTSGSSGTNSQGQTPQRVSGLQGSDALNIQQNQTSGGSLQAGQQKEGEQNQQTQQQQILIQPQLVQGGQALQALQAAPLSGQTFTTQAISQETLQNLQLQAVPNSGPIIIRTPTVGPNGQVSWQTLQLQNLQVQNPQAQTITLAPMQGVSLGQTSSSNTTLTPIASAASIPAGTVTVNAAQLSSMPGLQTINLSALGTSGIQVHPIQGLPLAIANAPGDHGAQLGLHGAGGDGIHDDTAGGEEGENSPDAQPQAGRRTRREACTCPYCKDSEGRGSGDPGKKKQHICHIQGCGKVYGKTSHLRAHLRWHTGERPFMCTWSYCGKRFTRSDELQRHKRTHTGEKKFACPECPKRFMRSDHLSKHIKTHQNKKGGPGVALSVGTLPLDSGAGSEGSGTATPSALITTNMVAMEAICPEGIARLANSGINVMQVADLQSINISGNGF

B1: CIRE (GADD153 -74 to -35) (dsDNA)
DNA 1: AGGCTCCTGGGTCCCGCCCCCCAAAAGAGGGGACGGGCC
DNA 2: GGCCCGTCCCCTCTTTTGGGGGGCGGGACCCAGGAGCCT
- binding result: binds

— US5770430, “Cellular injury response element and uses thereof” (Research Development Foundation)
